# Test results taken from patent US20130280279A1, “PHARMACEUTICAL COMPOSITION OF A COMPLEX OF AN ANTI-DIG ANTIBODY AND DIGOXIGENIN THAT IS CONJUGATED TO A PEPTIDE” (HOFFMANN-LA ROCHE INC., priority 2011, published 2013).
# *1 amine or outer side, *2 acyl side, *3 side chain or, on linkers, in order; H or OH if unused. Where a SMILES comes first, the peptide text is derived from it. Primed or numbered codes have the meaning given here. Where no end group is shown, it is not given here. [ ]: non-standard residue; d: D form. The star is where a group is joined. Pqa = 4-oxo-6-(1-piperazinyl)-3(4H)-quinazoline-acetic acid (CAS 889958-08-1), O=C(Cn1cnc2ccc(N3CCN([*:1])CC3)cc2c1=O)[*:2]; Pqa″ = 4-oxo-6-(1-piperazinyl)-3(4H)-quinazoline-acetic acid, O=C(Cn1cnc2ccc(N3CCN([*:1])CC3)cc2c1=O)[*:2]; Tyr(2,6-F2) = N[C@@H](Cc1c(F)cc(O)cc1F)C(=O)O; NMeR = CN[C@@H](CCCNC(=N)N)C(=O)O; Piv = CC(C)(C)C(=O)*; Bz = O=C(c1ccccc1)*
# Biological target: T1, Y2R (Homo sapiens, UniProt P49146)
# T1 sequence (P49146 1-381): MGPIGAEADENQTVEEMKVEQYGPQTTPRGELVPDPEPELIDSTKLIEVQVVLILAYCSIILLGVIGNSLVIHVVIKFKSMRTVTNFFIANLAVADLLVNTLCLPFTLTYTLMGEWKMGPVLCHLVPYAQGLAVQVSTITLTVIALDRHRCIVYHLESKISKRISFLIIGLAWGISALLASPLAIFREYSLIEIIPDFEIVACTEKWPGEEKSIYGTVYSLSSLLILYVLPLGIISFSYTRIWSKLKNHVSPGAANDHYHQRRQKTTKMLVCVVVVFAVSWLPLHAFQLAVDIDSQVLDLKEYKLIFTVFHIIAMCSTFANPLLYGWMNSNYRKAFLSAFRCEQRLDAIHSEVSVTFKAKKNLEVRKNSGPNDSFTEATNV
# Assay: not given
# Settings: values of WO 2007/065808; read-out: Y2R EC50 (nM) cAMP; cited from earlier work
row,Compound,EC50 [nM]
1,IK-Pqa-RHYLNLVTRQ(N-methyl)RW (IK[Pqa]RHYLNLVTRQ[NMeR]W; ends and bridges not checked) [Example 21],1.06
2,IK-Pqa-RHYLNLVTRQ(N-methyl)R(2-6 di F)Y [Example 9],0.19
3,IK-Pqa-RHYLNLVTRQ(N-methyl)RCha [Example 20],0.5
4,"IK-P qa-RHYLNLVTRQ (N-methyl)R(2,3.4,5,6-Penta-F)Phe [Example 18]",2.5
5,Cyclohexyl-IK-Pqa-RHYLNWVTRQ(N-methyl)RY (cyclohexyl-IK[Pqa]RHYLNWVTRQ[NMeR]Y; ends and bridges not checked) [Example 31],1.37
6,"Ac-IK-Pqa-RHYLNWVTRQ(N-methyl)R(2-6 di F)Y (Ac-IK[Pqa]RHYLNWVTRQ[NMeR][Tyr(2,6-F2)]) [Example 27]",0.07
7,IK-Pqa-RHYLNLVTRQ (N-methyl)R(3-5 di F)Y [Example 8],0.36
8,IK-Pqa-RHYLNLVTRQR-C-α-Me-Tyr [Example 24],1.35
9,Benzoyl-IK-Pqa-RHYLNWVTRQ(N-methyl)RY (Bz-IK[Pqa]RHYLNWVTRQ[NMeR]Y; ends and bridges not checked) [Example 32],0.66
10,IK-Pqa-RHYLNLVTRQ(N-methyl)R(3-F)Phe [Example 17],0.75
11,IK-Pqa-RHYLNLVTRQ(N-methyl)R(m-)Y [Example 6],1.5
12,IK-Pqa-RHYLNLVTRQ(N-methyl)RF [Example 12],0.69
13,IK-Pqa-RHYLNLVTRQ(N-methyl)RY [Example 5],0.42
14,Trimetylacetyl-IK-Pqa-RHYLNWVTRQ(N-methyl)RY (Piv-IK[Pqa″]RHYLNWVTRQ[NMeR]Y) [Example 30],0.26
15,IK-Pqa-RHYLNLVTRQ(N-methyl)R(4-CF3)Phe [Example 16],3.55
16,Pentyl-IK-Pqa-RHYLNWVTRQ(N-methyl)RY (Pentyl-IK[Pqa″]RHYLNWVTRQ[NMeR]Y) [Example 29],0.51
17,IK-Pqa-RHYLNWVTRQ(N-methyl)RY (IK[Pqa]RHYLNWVTRQ[NMeR]Y; ends and bridges not checked) [Example 25],0.25
18,IK-Pqa-RHYLNLVTRQ(N-methyl)R(3.4-diC1)Phe [Example 19],1.47
19,Adamtyl-IK-Pqa-RHYLNWVTRQ(N-methyl)RY (adamantyl-IK[Pqa]RHYLNWVTRQ[NMeR]Y; ends and bridges not checked) [Example 33],2.9
20,IK-Pqa-RHYLNLVTRQ(N-methyl)R(1)Nal [Example 22],1.14
21,"INle-Pqa-RHYLNWVTRQ(N-methyl)RY (IXXRHYLNWVTRQRY; Nle, Pqa linker, N-methyl Arg) [Example 26]",0.108
22,IK-Pqa-RHYLNLVTRQ(N-methyl)RF(O—CH3) [Example 11],0.55
23,IK-Pqa-RHYLNLVTRQ(N-methyl)R(2)Nal [Example 23],2.4

# Test system: H322M cells
# Assay: CytoTox-Glo cytotoxicity assay
# Assay type: cell-based, human
# Settings: CytoTox-Glo
# Procedure: To evaluate whether additions or alterations of the peptide Melittin, FALLv1 and FALLv2 by digoxygenin alters its biological activity, we performed in vitro assays. As these peptides are cytotoxic, their biological activity can easily be analyzed by monitoring the number of dead cells. To measure this number, the CytoTox-Glo assay (Promega Madison, WI) was used. Table 2 lists results of these CytoTox-Glo-assays that were performed to assess the biological activity of the Melittin, Fallv1 and Fallv2 peptides and their DIG-modified variants. For these assays, H322M cells were seeded at a density of 15.000 cells per well in 96 well plates. The cells were incubated for 24 hours at 37° C., 5% CO2 and 85% humidity in RPMI with 10% FCS, Na+ Pyrovate, L-Glutamine and NEAA mix. The peptide and it's DIG-modified variant were then added to the cells in the concentrations indicated. The cells were incubated for further 48 hours. After this period, the cells were treated with the CytoTox-Glo-assay reagent according to the manufacturers instructions. In brief, this assay detects dead cells via the presence of a protease in the medium that cleaves a […] peptide in the reagent. The luminescence of this assay therefore represents dead cells. The 96 well plates were then analyzed in a InfiniteF200 luminescence reader (Tecan Austria, Groding). […] Not only covalent coupling to haptens, but also complexation of peptides to large antibody molecules may influence their biological activity. Because IgG-derived molecules are large proteins (10-40 fold the size of peptides), it cannot a priori be excluded that such molecules may sterically hinder accessibility of peptide and therefore interfere with biological activity. To address this topic, we analyzed the in vitro activity of peptide-antibody complexes for the cytotoxic peptides FALLv1 and Fam5b. Again, we made use of the fact that these peptide are cytotoxic towards tumor cell lines and therefore tested their functionality in cytotoxicity and viability assays as described above. […] Moreover, utilizing bispecific antibodies for targeting such peptides to tumor cells, we could show increased peptide-mediated cytotoxicity towards targeted cells compared to nontargeted cells (as shown in PCT/EP2010/004051).
row,Compound,activity upon conjugation to digoxygenin
1,CC[C@H](C)[C@H](NC(=O)[C@H](CCCCN)NC(=O)[C@H](CCC(=O)O)NC(=O)[C@H](CCCCN)NC(=O)[C@H](CO)NC(=O)[C@H](CCCCN)NC(=O)[C@H](CCCNC(=N)N)NC(=O)[C@H](Cc1ccccc1)NC(=O)[C@H](Cc1ccccc1)NC(=O)[C@H](CC(=O)O)NC(=O)CNC(=O)[C@H](CC(C)C)NC(=O)[C@H](CC(C)C)NC(=O)[C@H](C)NC(=O)[C@@H](N)Cc1ccccc1)C(=O)NCC(=O)N[C@@H](CCCCN)C(=O)N[C@@H](CCC(=O)O)C(=O)N[C@@H](Cc1ccccc1)C(=O)N[C@@H](CCCCN)C(=O)N[C@@H](CCCNC(=N)N)C(=O)N[C@H](C(=O)N[C@H](C(=O)N[C@@H](CCC(N)=O)C(=O)N[C@@H](CCCNC(=N)N)C(=O)N[C@H](C(=O)N[C@@H](CCCCN)C(=O)N[C@@H](CC(=O)O)C(=O)N[C@@H](Cc1ccccc1)C(=O)N[C@@H](CC(C)C)C(=O)N[C@@H](CCCNC(=N)N)C(=O)N[C@@H](CC(N)=O)C(=O)N[C@@H](CC(C)C)C(=O)N[C@H](C(=O)N1CCC[C@H]1C(=O)N[C@@H](CCCNC(=N)N)C(=O)N[C@H](C(=O)N[C@@H](CCC(=O)O)C(=O)N[C@@H](CO)C(N)=O)[C@@H](C)O)C(C)C)[C@@H](C)CC)C(C)C)[C@@H](C)CC [FALLv1],similarly retained
2,CC[C@H](C)[C@H](NC(=O)[C@H](CCCCN)NC(=O)[C@H](CCC(=O)O)NC(=O)[C@H](CCCCN)NC(=O)[C@H](CO)NC(=O)[C@H](CCCCN)NC(=O)[C@H](CCCNC(=N)N)NC(=O)[C@H](Cc1ccccc1)NC(=O)[C@H](Cc1ccccc1)NC(=O)[C@H](CC(=O)O)NC(=O)CNC(=O)[C@H](CC(C)C)NC(=O)[C@H](CC(C)C)NC(=O)[C@H](C)NC(=O)[C@H](Cc1ccccc1)NC(=O)[C@H](CCCNC(=N)N)NC(=O)[C@H](CCCCN)NC(=O)[C@@H](N)CC(N)=O)C(=O)NCC(=O)N[C@@H](CCCCN)C(=O)N[C@@H](CCC(=O)O)C(=O)N[C@@H](Cc1ccccc1)C(=O)N[C@@H](CCCCN)C(=O)N[C@@H](CCCNC(=N)N)C(=O)N[C@H](C(=O)N[C@H](C(=O)N[C@@H](CCC(N)=O)C(=O)N[C@@H](CCCNC(=N)N)C(=O)N[C@H](C(=O)N[C@@H](CCCCN)C(=O)N[C@@H](CC(=O)O)C(=O)N[C@@H](Cc1ccccc1)C(=O)N[C@@H](CC(C)C)C(=O)N[C@@H](CCCNC(=N)N)C(=O)N[C@@H](CC(N)=O)C(=O)N[C@@H](CC(C)C)C(=O)N[C@H](C(=O)N1CCC[C@H]1C(=O)N[C@@H](CCCNC(=N)N)C(N)=O)C(C)C)[C@@H](C)CC)C(C)C)[C@@H](C)CC [FALLv2] (H-NKRFALLGDFFRKSKEKIGKEFKRIVQRIKDFLRNLVPR-NH2; N-terminus and C-terminus assumed),similarly retained

# Same assay, conditions: cytotoxicity and viability assays, tumor cell lines
row,Compound,biological activity of digoxigenated peptide complexed with digoxigenin binding antibody derivatives
1,QHRYQQLGAGLKVLFKKTHRILRRLFNLAK (listed as Homo sapiens) [Fam5b],retain their biological activities
2,CC[C@H](C)[C@H](NC(=O)[C@H](CCCCN)NC(=O)[C@H](CCC(=O)O)NC(=O)[C@H](CCCCN)NC(=O)[C@H](CO)NC(=O)[C@H](CCCCN)NC(=O)[C@H](CCCNC(=N)N)NC(=O)[C@H](Cc1ccccc1)NC(=O)[C@H](Cc1ccccc1)NC(=O)[C@H](CC(=O)O)NC(=O)CNC(=O)[C@H](CC(C)C)NC(=O)[C@H](CC(C)C)NC(=O)[C@H](C)NC(=O)[C@@H](N)Cc1ccccc1)C(=O)NCC(=O)N[C@@H](CCCCN)C(=O)N[C@@H](CCC(=O)O)C(=O)N[C@@H](Cc1ccccc1)C(=O)N[C@@H](CCCCN)C(=O)N[C@@H](CCCNC(=N)N)C(=O)N[C@H](C(=O)N[C@H](C(=O)N[C@@H](CCC(N)=O)C(=O)N[C@@H](CCCNC(=N)N)C(=O)N[C@H](C(=O)N[C@@H](CCCCN)C(=O)N[C@@H](CC(=O)O)C(=O)N[C@@H](Cc1ccccc1)C(=O)N[C@@H](CC(C)C)C(=O)N[C@@H](CCCNC(=N)N)C(=O)N[C@@H](CC(N)=O)C(=O)N[C@@H](CC(C)C)C(=O)N[C@H](C(=O)N1CCC[C@H]1C(=O)N[C@@H](CCCNC(=N)N)C(=O)N[C@H](C(=O)N[C@@H](CCC(=O)O)C(=O)N[C@@H](CO)C(N)=O)[C@@H](C)O)C(C)C)[C@@H](C)CC)C(C)C)[C@@H](C)CC [FALLv1],retain their biological activities
